Source: patent US20050227220A1, “Compositions and Methods for Evaluating and Designing Nuclear Receptor Ligands that Modulate Co-Regulator Affinity” (priority 2002, published 2005)
No end group written: not given here. *: point of attachment. Biotin = O=C1N[C@H]2[C@H](CS[C@H]2CCCCC(=O)*)N1

Tests used:
PPARδ LBD [1] = molecular target: T1, PPARδ LBD (Homo sapiens, UniProt Q03181); experiment: Fluorescence polarization assay for ligand modulation of nuclear receptor/cofactor peptide affinities; format: biochemical; conditions: result in words
T1 construct: made in house; host or cells: bacterial BL21-DE3, vector pRSETA
T1 sequence (Q03181 139-441): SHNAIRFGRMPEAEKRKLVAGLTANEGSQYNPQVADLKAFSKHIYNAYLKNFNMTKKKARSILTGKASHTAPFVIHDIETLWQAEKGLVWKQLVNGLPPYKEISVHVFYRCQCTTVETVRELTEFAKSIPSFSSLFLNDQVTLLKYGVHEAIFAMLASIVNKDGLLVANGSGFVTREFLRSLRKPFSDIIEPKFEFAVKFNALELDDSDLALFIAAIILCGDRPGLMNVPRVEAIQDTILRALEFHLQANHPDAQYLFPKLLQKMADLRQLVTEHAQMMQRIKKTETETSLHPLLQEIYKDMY
Description: Such tests were performed quantitatively by measuring the effect of an excess of ligand on the binding affinity of the co-repressor peptide.
All experiments were conducted with buffer containing 10 mM HEPES, pH 7.4, containing 0.15 M NaCl, 3 mM EDTA, 0.005% polysorbate-20 and 5 mM DTT. Varied concentrations of receptor were incubated at room temperature with 10 nM of fluorescein-labeled NCOR ID-C or SMRT ID-C peptides. […] Binding isotherms were constructed and apparent KD values were determined by non-linear least squares fit of the data to an equation for a simple 1:1 interaction. […] Complex formation was monitored by fluorescence polarization as described in methods. […] All assays were performed in duplicate and affinities are the average of at least two independent experiments.

PPARδ LBD [2] = molecular target: T1, PPARδ LBD; experiment: FRET assay: ligand effect on CBP fragment / NCoR ID-C binding to PPAR LBD; format: biochemical
Description: (§1) The experimentally determined α value is the ratio of cofactor affinities in the presence and absence of a saturating concentration of ligand. This analysis permits a direct comparison of the effects of compounds, independent of cofactor concentration and differences in coregulator affinity for the individual receptors. […] 98(9): p.
(§2) The effects of the coregulator environment on the apparent affinities and selectivities of various ligands were than examined. Experimentally determined pKs and the α values derived from the FRET assay were used to calculate the apparent affinity of the ligand for the receptor/cofactor complex (i.e. K/α).
(§3) FIG. 5 illustrates the effect of ligands on coactivator and corepressor binding to PPAR subtypes determined by FRET.

PPARα LBD = molecular target: T2, PPARα LBD (Homo sapiens, UniProt Q07869); experiment: as above; format: biochemical; conditions: 10 nM PPAR LBD, CBP (57-454)
T2 construct: made in house; host or cells: bacterial BL21-DE3, vector pRSETA
T2 sequence (Q07869 192-468): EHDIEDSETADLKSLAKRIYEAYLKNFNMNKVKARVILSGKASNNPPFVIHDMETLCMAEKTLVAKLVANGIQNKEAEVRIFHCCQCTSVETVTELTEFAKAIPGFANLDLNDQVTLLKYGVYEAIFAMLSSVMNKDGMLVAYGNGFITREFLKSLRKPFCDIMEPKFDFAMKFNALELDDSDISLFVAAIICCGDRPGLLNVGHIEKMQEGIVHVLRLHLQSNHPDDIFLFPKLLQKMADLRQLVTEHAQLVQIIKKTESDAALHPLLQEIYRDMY
Description: as §1, §2, §3

full length human PPARδ = molecular target: T3, full length human PPARδ (Homo sapiens, UniProt Q03181); experiment: Mammalian two-hybrid assay (CV-1 cells); format: cell-based; conditions: VP16-PPARδ, GAL4-NCoR (2239-2300), result in words
T3 construct: expressed in transfected cells; host or cells: CV-1 cells, vector pVP16 (Clonetech)
Description: (§4) Mammalian two-hybrid assays were used to examine the ability of the tyrosine-based class of PPAR ligands to promote association or dissociation of the co-activator CBP and the corepressor NCoR in the context of a cellular environment. The assays for the three PPAR subtypes used full length human PPARα, PPARγ2 or PPARδ fused to the activation domain of VP16 and previously identified interaction domains of CBP and NCoR fused to the DNA binding domain of GAL4.
(§5) Expression plasmids for the VP16-human PPAR constructs were prepared by inserting amplified cDNAs encoding full length PPARα, PPARγ2 and PPARδ fused to amino acids 410-490 of the VP16 viral activation domain, into the expression vector pVP16 (Clonetech). […] The reporter plasmid was (UAS)5-tk-SPAP, and the internal control plasmid for all transfections was β-galactosidase expression vector (pCH110, Amersham).
(§6) CV-1 cells were maintained in culture in DME high glucose medium supplemented with 10% FBS and 2 mM glutamine in a humidified incubator (5% CO2 in air) at 37° C. Cells were harvested 72 hours prior to experimental use and placed in phenol red free D-MEM/F-12 medium with 15 mM HEPES supplemented with 10% charcoal/dextran-treated FBS (HyClone, Logan, Utah). The cells were harvested and seeded at 2.0×10^4 cell per well in a 96-well plate the day prior to transfection. Cells were transfected for 16 hr using Lipofectamine (Life Technologies, Inc., Rockville, Md.) essentially according to the manufacturer's instructions. The total amount of DNA transfected into each well was 80 ng. Transfection mixtures contained 8 ng VP16-PPAR plasmid, 8 ng SPAP reporter, 25 ng of pCH110(β-galactosidase) control plasmid, 35 ng of pBluescript II KS+ (Clonetech) and 4 ng of either coactivator or corepressor plasmid. Transfection quantities for full length PPAR and cofactor plasmids were optimized to generate a signal that was half of the maximal activation. These conditions would allow for dissociation or association to be experimentally determined for each ligand evaluated. Stock solutions of drugs were prepated in DMSO and dilutions were made in phenol red-free D-MEM/F-12 with 15 mM HEPES supplemented with 10% charcoal stripped, delipidated, heat inactivated (62° C. for 35 min) bovine calf serum (Sigma, St. Louis, Mo.) such that the final concentration of DMSO was 0.1%. Transfection mixtures were aspirated and 100 μl, of medium containing drug was added to each well.

full length human PPARα = molecular target: T4, full length human PPARα (Homo sapiens, UniProt Q07869); experiment: Mammalian two-hybrid assay (CV-1 cells); format: cell-based; conditions: VP16-PPARα, GAL4-NCoR (2239-2300), result in words
T4 construct: expressed in transfected cells; host or cells: CV-1 cells, vector pVP16 (Clonetech)
T4 sequence (Q07869 1-468): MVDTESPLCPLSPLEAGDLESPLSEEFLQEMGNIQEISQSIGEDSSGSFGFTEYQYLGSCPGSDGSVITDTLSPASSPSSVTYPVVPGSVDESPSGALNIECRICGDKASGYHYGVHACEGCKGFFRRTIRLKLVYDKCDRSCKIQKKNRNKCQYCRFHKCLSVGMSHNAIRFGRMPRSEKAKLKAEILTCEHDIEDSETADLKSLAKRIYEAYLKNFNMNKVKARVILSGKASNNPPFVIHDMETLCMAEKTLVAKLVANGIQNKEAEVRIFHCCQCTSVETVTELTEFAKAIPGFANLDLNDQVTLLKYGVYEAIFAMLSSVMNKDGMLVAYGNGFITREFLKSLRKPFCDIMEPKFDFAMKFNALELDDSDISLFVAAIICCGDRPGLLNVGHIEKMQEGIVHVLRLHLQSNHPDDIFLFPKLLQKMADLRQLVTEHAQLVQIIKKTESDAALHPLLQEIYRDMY
Description: as §4, §5, §6

PPARδ LBD / RXRα LBD = molecular target: T5, PPARδ LBD / RXRα LBD (Homo sapiens, UniProt Q03181); experiment: FRET assay: ligand effect on RXRα LBD binding to PPAR LBD; conditions: 10 nM PPAR LBD, 4 concentrations of RXR
T5 sequence (Q03181 139-441): T1 sequence (Q03181 139-441)
T5 sequence (P19793 225-462 partner limits assumed): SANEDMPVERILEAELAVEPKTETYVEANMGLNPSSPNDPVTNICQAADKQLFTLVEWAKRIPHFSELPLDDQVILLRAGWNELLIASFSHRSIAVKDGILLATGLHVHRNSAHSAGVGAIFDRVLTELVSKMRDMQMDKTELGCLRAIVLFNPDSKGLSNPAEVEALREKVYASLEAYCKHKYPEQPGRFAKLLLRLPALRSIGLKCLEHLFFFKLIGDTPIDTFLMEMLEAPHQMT

[3] = molecular target: T6, human PPARδ ligand binding domain (amino acids 139-441) (human, UniProt Q03181 139-441, Biotinylated (site not stated) in the FRET assays; unlabelled in fluorescence polarization and SPR.); experiment: fluorescence polarization, apparent affinity, with rosiglitazone
T6 construct: placed at the N-terminus here; Biotinylated for FRET; also called PPARδ LBD
T6 sequence: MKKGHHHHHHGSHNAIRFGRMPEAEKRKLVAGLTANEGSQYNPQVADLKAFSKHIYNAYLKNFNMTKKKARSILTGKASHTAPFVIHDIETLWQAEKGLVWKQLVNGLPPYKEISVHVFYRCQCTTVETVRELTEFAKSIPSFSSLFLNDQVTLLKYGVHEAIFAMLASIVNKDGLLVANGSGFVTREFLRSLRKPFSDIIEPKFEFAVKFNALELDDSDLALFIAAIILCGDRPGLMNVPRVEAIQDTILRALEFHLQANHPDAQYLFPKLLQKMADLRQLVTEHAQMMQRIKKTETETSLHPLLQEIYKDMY

[4] = molecular target: T7, human PPARγ ligand binding domain (amino acids 206-477) (human, UniProt P37231-2 206-477); experiment: as above
T7 construct: range 206-477; placed at the N-terminus here; Biotinylated for FRET; also called PPARγ LBD
T7 sequence: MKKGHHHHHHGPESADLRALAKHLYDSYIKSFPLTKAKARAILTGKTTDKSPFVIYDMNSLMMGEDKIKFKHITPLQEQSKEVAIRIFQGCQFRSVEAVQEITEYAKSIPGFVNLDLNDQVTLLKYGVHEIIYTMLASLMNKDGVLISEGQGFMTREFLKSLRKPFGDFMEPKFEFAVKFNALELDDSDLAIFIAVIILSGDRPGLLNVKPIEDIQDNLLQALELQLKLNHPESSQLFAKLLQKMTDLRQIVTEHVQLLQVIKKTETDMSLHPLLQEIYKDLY

[5] = molecular target: T6, human PPARδ ligand binding domain …; experiment: fluorescence polarization, apparent affinity, with GW1929
[6] = molecular target: T7, human PPARγ ligand binding domain …; experiment: as above
[7] = molecular target: T6, human PPARδ ligand binding domain …; experiment: fluorescence polarization, apparent affinity, no ligand
[8] = molecular target: T7, human PPARγ ligand binding domain …; experiment: as above
[9] = molecular target: T8, VP16-human PPARγ2 (full length) (human, UniProt P06492 410-490; P37231 1-505); experiment: mammalian two-hybrid in CV-1 cells
T8 construct: also called VP16 full length PPARγ

[10] = molecular target: T9, VP16-human PPARα (full length) (human, UniProt P06492 410-490; Q07869 1-468); experiment: mammalian two-hybrid in CV-1 cells
T9 construct: also called VP16 full length PPARα

[11] = molecular target: T10, VP16-human PPARδ (full length) (human, UniProt P06492 410-490; Q03181 1-441); experiment: mammalian two-hybrid in CV-1 cells
T10 construct: also called VP16 full length PPARδ

T3 sequence (Q03181 whole entry, the tested form may be a part): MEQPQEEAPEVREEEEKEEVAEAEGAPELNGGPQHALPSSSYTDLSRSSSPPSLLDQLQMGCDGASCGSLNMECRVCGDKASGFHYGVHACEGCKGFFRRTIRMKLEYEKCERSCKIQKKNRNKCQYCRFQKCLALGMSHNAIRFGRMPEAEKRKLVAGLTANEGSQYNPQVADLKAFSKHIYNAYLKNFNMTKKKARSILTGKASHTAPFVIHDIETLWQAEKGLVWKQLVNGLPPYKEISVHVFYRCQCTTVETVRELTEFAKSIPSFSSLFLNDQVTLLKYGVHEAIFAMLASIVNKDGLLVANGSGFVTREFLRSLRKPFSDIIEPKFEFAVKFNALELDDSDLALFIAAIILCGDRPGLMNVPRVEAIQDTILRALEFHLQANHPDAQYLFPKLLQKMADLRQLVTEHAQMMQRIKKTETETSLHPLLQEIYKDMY

CN(CCOc1ccc(C[C@H](Nc2ccccc2C(=O)c2ccccc2)C(=O)O)cc1)c1ccccn1 [GW1929]
effect on PPARδ interaction with the coactivator peptide (TRAP220) (PPARδ LBD [1]): little or no effect | effect on apparent affinity of PPARδ for the co-activator fragment from CBP (PPARδ LBD [2]; 10 nM PPAR LBD, CBP (57-454)): increased the apparent affinity | effect on affinity of PPARδ for the co-repressor peptide (PPARδ LBD [2]; 10 nM PPAR LBD, NCoR ID-C): greatest effect | log α (NCoR association with PPARδ) (PPARδ LBD [2]; α = ratio of cofactor affinities in presence and absence of saturating ligand): 0.52 | effect on apparent affinity of PPARα for the co-activator fragment from CBP (PPARα LBD): increased the apparent affinity | effect on PPARδ interaction with NCoR (full length human PPARδ): slightly promote association | effect on PPARα interaction with NCoR (full length human PPARα): neither GW1929 nor GW7845 were able to promote association with NCoR | promotion of association of PPARδ with RXR (PPARδ LBD / RXRα LBD): most effective

B1: TRAP220 peptide (amino acids 575-599) (peptide)
peptide: Biotin-GHGEDFSKVSQNPILTSLLQITGNG
modifications: not fully specified; printed as biotin-GHGEDFSKVSQNPILTSLLQITGNG
notes: also called TRAP220 575-599
Kd [3]: 1800 nM | Kd [4]: 1500 nM | Kd [5]: 3.4 µM | Kd [6]: 790 nM | Kd [7]: 2300 nM | Kd [8]: 3.9 µM

B2: GAL4-NcoR (2012-2103) (other)
chain: MKLLSSIEQACDICRLKKLKCSKEKPKCAKCLKNNWECRYSPKTKRSPLTRAHLTEVESRLERLEQLFLLIFPREDLDMILKMDSLQDIKALLTGLFVQDNVNKDAVTDRLASVETDMPLTLRQHRISATSSSEESSNKGQRQLTVSGPLHHYRPQQESPSPQQQLPPSSQAEGMGQVPRTHRLITLADHICQIITQDFARNQVSSQTPQQPPTSTFQNSPSALVSTPVRTKTSNRYSP
notes: range 1-147;range 2012-2103; also called NCoR fragment (2012-2103) that contained NCoR ID-N
binding result [9]: no binding | binding result [10]: no binding | binding result [11]: no binding
